Data on one molecule can be found in patent US20260256879A1, “COMBINATION THERAPY WITH MEK INHIBITORS FOR THE TREATMENT OF CANCER” (FUNDACIÓ PRIVADA INSTITUT D'INVESTIGACIÓ ONCOLÒGICA DE VALL …, priority 2023, published 2026).

The subject of this test is SkMel28 cells. Briefly: AlamarBlue cell viability, 5 days of treatment, alone or in combination; synergy by SynergyFinder 3.0 (ZIP). The note with it: SkMel28, 5 days, FIG. 1A. In kind it is cell-based, human. How it is done:
Omomyc in Combination with MEK Inhibitors Acts Synergistically in Decreasing the Viability of Melanoma Cancer Cells Two human melanoma cell lines with mutations in BRAF (BRAF^V600E) (SkMel28 and SkMel37) were used. Cells were plated in 96 well plates and treated on the following day with increasing concentrations of Trametinib and Omomyc, alone or in combination. After 5 days of treatment, media was removed and AlamarBlue™ Cell Viability Reagent was added to each well, incubated for 3 hours until metabolized, and fluorescence was read with a microplate reader using an excitation between 530-560 and an emission at 590 nm.
Synergy was evaluated using SynergyFinder 3.0 web application derived from Ianevsky A et al. Nucleic Acids Res. 2022; 50(W1):W739-W743.
Synergy scores can be interpreted as the average excess response due to drug interactions. Synergy scores close to 0 give limited confidence in synergy or antagonism. So, when the synergy scores are: less than −10, the interaction between two drugs is likely to be antagonistic. From −10 to 10, the interaction between two drugs is likely to be additive. Greater than 10, the interaction between two drugs is likely to be synergistic.
In general terms: Resazurin is reduced to fluorescent resorufin, in cell work by metabolically active cells.

B1: Omomyc: Mutated bHLHZip domain of Myc (E61T, E68I, R74Q, R75N); tested polypeptide is SEQ ID NO: 4, N-terminal methionine, produced in E. coli (protein)
chain: MTEENVKRRTHNVLERQRRNELKRSFFALRDQIPELENNEKAPKVVILKKATAYILSVQAETQKLISEIDLLRKQNEQLKHKLEQLRNSCA
modifications: N-terminal methionine
For B1, the “effect of single agent on viability of the cells” value is “reduces the viability”.
